This is an account of results in PMC8104870.

In the test the target is T1, bacteriophage phi29 DNA packaging ATPase gp16 (bacteriophage phi29), P11014.
T1 chain: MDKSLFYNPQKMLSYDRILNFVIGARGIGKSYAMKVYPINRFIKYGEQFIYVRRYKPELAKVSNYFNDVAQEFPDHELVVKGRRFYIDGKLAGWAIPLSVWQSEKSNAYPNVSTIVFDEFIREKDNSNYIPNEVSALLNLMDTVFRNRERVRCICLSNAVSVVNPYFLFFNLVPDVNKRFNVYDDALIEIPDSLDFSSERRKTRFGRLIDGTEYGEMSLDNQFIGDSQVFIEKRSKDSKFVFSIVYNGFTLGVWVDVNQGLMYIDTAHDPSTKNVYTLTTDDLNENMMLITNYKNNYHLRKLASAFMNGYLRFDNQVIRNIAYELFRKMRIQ
Put plainly: cryo-EM structure. The settings on record: remark: other sources report otherwise.

B1: bacteriophage phi29 DNA packaging ATPase gp16, P11014 1-332 (enzyme)
chain: MDKSLFYNPQKMLSYDRILNFVIGARGIGKSYAMKVYPINRFIKYGEQFIYVRRYKPELAKVSNYFNDVAQEFPDHELVVKGRRFYIDGKLAGWAIPLSVWQSEKSNAYPNVSTIVFDEFIREKDNSNYIPNEVSALLNLMDTVFRNRERVRCICLSNAVSVVNPYFLFFNLVPDVNKRFNVYDDALIEIPDSLDFSSERRKTRFGRLIDGTEYGEMSLDNQFIGDSQVFIEKRSKDSKFVFSIVYNGFTLGVWVDVNQGLMYIDTAHDPSTKNVYTLTTDDLNENMMLITNYKNNYHLRKLASAFMNGYLRFDNQVIRNIAYELFRKMRIQ
Regarding B1, the stoichiometry N was 5.

As a reminder, the stoichiometry N is the number of molecules, sites or subunits per partner or assembly.
